B1: Pistol ribozyme (parent)
chain: GGGUCGUUGUUCCAUAAUCGCGUGGAUAUGGCACGCAAGUUUCUACCGGGCACCGUAAAUGUCCGACUGGAGCCGUUCGGGCGGCUAUAAACAGACCUCAGGCCCGAAGCGUGGCGGCACCUGCCGCCGGUGGUAAAAAAGAUCGGAAGAGCACACGUCU

Variants of: B1
Test: aptazyme ON/OFF ratio, guanine; higher = stronger switching; co-transcriptional cleavage with and without guanine

Row | Variant | aptazyme ON/OFF ratio
1 | GGGUCGGAAUCCAAUAAUCGCGUGGAUAUGGCACGCAAGUUUCUACCGGGCACCGUAAAUGUCCGACUGGAGCCGUUCGGGCGGCUAUAAACAGACCUCAGGCCCGAAGCGUGGCGGCACCUGCCGCCGGUGGUAAAAAAGAUCGGAAGAGCACACGUCU [U7G U8A G9A U11C C13A] | 1.07
2 | GGGUCGGAAUCCGAUAAUCGCGUGGAUAUGGCACGCAAGUUUCUACCGGGCACCGUAAAUGUCCGACUGGAGCCGUUCGGGCGGCUAUAAACAGACCUCAGGCCCGAAGCGUGGCGGCACCUGCCGCCGGUGGUAAAAAAGAUCGGAAGAGCACACGUCU [U7G U8A G9A U11C C13G] | 1.06
3 | GGGUCGGAAUCCUAUAAUCGCGUGGAUAUGGCACGCAAGUUUCUACCGGGCACCGUAAAUGUCCGACUGGAGCCGUUCGGGCGGCUAUAAACAGACCUCAGGCCCGAAGCGUGGCGGCACCUGCCGCCGGUGGUAAAAAAGAUCGGAAGAGCACACGUCU [U7G U8A G9A U11C C13U] | 1.06
4 | GGGUCGGAAGGCUAUAAUCGCGUGGAUAUGGCACGCAAGUUUCUACCGGGCACCGUAAAUGUCCGACUGGAGCCGUUCGGGCGGCUAUAAACAGACCUCAGGCCCGAAGCGUGGCGGCACCUGCCGCCGGUGGUAAAAAAGAUCGGAAGAGCACACGUCU [U7G U8A G9A U10G U11G C13U] | 1.26
5 | GGGUCGGAAGGCAAUAAUCGCGUGGAUAUGGCACGCAAGUUUCUACCGGGCACCGUAAAUGUCCGACUGGAGCCGUUCGGGCGGCUAUAAACAGACCUCAGGCCCGAAGCGUGGCGGCACCUGCCGCCGGUGGUAAAAAAGAUCGGAAGAGCACACGUCU [U7G U8A G9A U10G U11G C13A] | 1.29
6 | GGGUCGGAAGGCGAUAAUCGCGUGGAUAUGGCACGCAAGUUUCUACCGGGCACCGUAAAUGUCCGACUGGAGCCGUUCGGGCGGCUAUAAACAGACCUCAGGCCCGAAGCGUGGCGGCACCUGCCGCCGGUGGUAAAAAAGAUCGGAAGAGCACACGUCU [U7G U8A G9A U10G U11G C13G] | 1.34
7 | GGGUCGGAAUCCCAUAAUCGCGUGGAUAUGGCACGCAAGUUUCUACCGGGCACCGUAAAUGUCCGACUGGAGCCGUUCGGGCGGCUAUAAACAGACCUCAGGCCCGAAGCGUGGCGGCACCUGCCGCCGGUGGUAAAAAAGAUCGGAAGAGCACACGUCU [U7G U8A G9A U11C] | 1.03
8 | GGGUCGGAAUACCAUAAUCGCGUGGAUAUGGCACGCAAGUUUCUACCGGGCACCGUAAAUGUCCGACUGGAGCCGUUCGGGCGGCUAUAAACAGACCUCAGGCCCGAAGCGUGGCGGCACCUGCCGCCGGUGGUAAAAAAGAUCGGAAGAGCACACGUCU [U7G U8A G9A U11A] | 1.45
9 | GGGUCGGAAUAAGAUAAUCGCGUGGAUAUGGCACGCAAGUUUCUACCGGGCACCGUAAAUGUCCGACUGGAGCCGUUCGGGCGGCUAUAAACAGACCUCAGGCCCGAAGCGUGGCGGCACCUGCCGCCGGUGGUAAAAAAGAUCGGAAGAGCACACGUCU [U7G U8A G9A U11A C12A C13G] | 1.08
10 | GGGUCGGAAUAAAAUAAUCGCGUGGAUAUGGCACGCAAGUUUCUACCGGGCACCGUAAAUGUCCGACUGGAGCCGUUCGGGCGGCUAUAAACAGACCUCAGGCCCGAAGCGUGGCGGCACCUGCCGCCGGUGGUAAAAAAGAUCGGAAGAGCACACGUCU [U7G U8A G9A U11A C12A C13A] | 1.16
11 | GGGUCGGAAUAAUAUAAUCGCGUGGAUAUGGCACGCAAGUUUCUACCGGGCACCGUAAAUGUCCGACUGGAGCCGUUCGGGCGGCUAUAAACAGACCUCAGGCCCGAAGCGUGGCGGCACCUGCCGCCGGUGGUAAAAAAGAUCGGAAGAGCACACGUCU [U7G U8A G9A U11A C12A C13U] | 1.21
12 | GGGUCGGAAUCAUAUAAUCGCGUGGAUAUGGCACGCAAGUUUCUACCGGGCACCGUAAAUGUCCGACUGGAGCCGUUCGGGCGGCUAUAAACAGACCUCAGGCCCGAAGCGUGGCGGCACCUGCCGCCGGUGGUAAAAAAGAUCGGAAGAGCACACGUCU [U7G U8A G9A U11C C12A C13U] | 1.1
13 | GGGUCGGAAUCAGAUAAUCGCGUGGAUAUGGCACGCAAGUUUCUACCGGGCACCGUAAAUGUCCGACUGGAGCCGUUCGGGCGGCUAUAAACAGACCUCAGGCCCGAAGCGUGGCGGCACCUGCCGCCGGUGGUAAAAAAGAUCGGAAGAGCACACGUCU [U7G U8A G9A U11C C12A C13G] | 1.12
14 | GGGUCGGAAUCAAAUAAUCGCGUGGAUAUGGCACGCAAGUUUCUACCGGGCACCGUAAAUGUCCGACUGGAGCCGUUCGGGCGGCUAUAAACAGACCUCAGGCCCGAAGCGUGGCGGCACCUGCCGCCGGUGGUAAAAAAGAUCGGAAGAGCACACGUCU [U7G U8A G9A U11C C12A C13A] | 1.19
15 | GGGUCGGAAUCUAAUAAUCGCGUGGAUAUGGCACGCAAGUUUCUACCGGGCACCGUAAAUGUCCGACUGGAGCCGUUCGGGCGGCUAUAAACAGACCUCAGGCCCGAAGCGUGGCGGCACCUGCCGCCGGUGGUAAAAAAGAUCGGAAGAGCACACGUCU [U7G U8A G9A U11C C12U C13A] | 1.23
16 | GGGUCGGAAUCUUAUAAUCGCGUGGAUAUGGCACGCAAGUUUCUACCGGGCACCGUAAAUGUCCGACUGGAGCCGUUCGGGCGGCUAUAAACAGACCUCAGGCCCGAAGCGUGGCGGCACCUGCCGCCGGUGGUAAAAAAGAUCGGAAGAGCACACGUCU [U7G U8A G9A U11C C12U C13U] | 1.17
17 | GGGUCGGAAUCUGAUAAUCGCGUGGAUAUGGCACGCAAGUUUCUACCGGGCACCGUAAAUGUCCGACUGGAGCCGUUCGGGCGGCUAUAAACAGACCUCAGGCCCGAAGCGUGGCGGCACCUGCCGCCGGUGGUAAAAAAGAUCGGAAGAGCACACGUCU [U7G U8A G9A U11C C12U C13G] | 1.29
18 | GGGUCGGAAUCGGAUAAUCGCGUGGAUAUGGCACGCAAGUUUCUACCGGGCACCGUAAAUGUCCGACUGGAGCCGUUCGGGCGGCUAUAAACAGACCUCAGGCCCGAAGCGUGGCGGCACCUGCCGCCGGUGGUAAAAAAGAUCGGAAGAGCACACGUCU [U7G U8A G9A U11C C12G C13G] | 1.04
